Test results: publication PMC10009750, “Development of Selective ADAMTS-5 Peptide Substrates to Monitor Proteinase Activity” (Journal of Medicinal Chemistry, 2023)
Non-standard residues stand in square brackets, D forms with d. No end group written: not given here. Tyr(3-NO2) = N[C@@H](Cc1ccc(O)c([N+](=O)[O-])c1)C(=O)O; 2Abz = Nc1ccccc1C(=O)O

Key:
[1] = target: T1, TS5-5 (combined catalytic and disintegrin domain of ADAMTS-5) (Homo sapiens, UniProt Q9UNA0); assay: Cleavage of FRET peptide substrates by TS5-5 in solution (activity/selectivity studies); type: biochemical; details: substrate 20 μM, TNC buffer with 0.005% (v/v) Brij-35, 37 °C; mean of 3–4 independent experiments in triplicate
T1 construct: ADAMTS-5 (i.e. TS5-5, residues 264–555); FLAG; made in house; host or cells: HEK293 cells (previously transfected stocks)
T1 sequence (Q9UNA0 264-555): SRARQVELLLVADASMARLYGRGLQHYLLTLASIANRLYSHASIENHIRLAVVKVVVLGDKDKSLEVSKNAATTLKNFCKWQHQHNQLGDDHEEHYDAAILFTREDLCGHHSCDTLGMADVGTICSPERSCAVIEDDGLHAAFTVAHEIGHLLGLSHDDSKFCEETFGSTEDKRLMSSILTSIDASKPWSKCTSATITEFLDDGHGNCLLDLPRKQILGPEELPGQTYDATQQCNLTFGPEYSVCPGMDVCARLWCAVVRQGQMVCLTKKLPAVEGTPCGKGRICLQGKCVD
Experimental: (§1) All proteinase assays were performed at 37 °C in a SpectraMax M5 spectrophotometer (Molecular Devices, San Jose, USA) using a 96-well black microplate (Greiner bio-one, Stonehouse, UK) unless otherwise stated. […] N-TIMP-3 was purified as described previously[30] and CT-1746 was a gift from Dr. Yoshifumi Itoh (Kennedy Institute of Rheumatology, University of Oxford). All analyses were carried out using Prism 9 software (GraphPad, La Jolla, CA, USA).
To test whether active TS5-5 had been purified, three concentrations of proteinase were assayed. A solution of Abz-TESE↓SRGAIY-Dpa-KK-NH2 (22.22 μM) in freshly prepared TNC buffer with 0.02% (v/v) Brij-35 (180 μL) was added to a 96-well black microplate in triplicate for each proteinase concentration. A substrate-only background control was also added in triplicate (180 μL). The resultant solutions were incubated at 37 °C (30 min). TS5-5 proteinase in TNC buffer with 0.02% (v/v) Brij-35 (20 μL) was added to wells to give final proteinase concentrations of 80 nM, 40 nM and 20 nM. TNC buffer with 0.02% (v/v) Brij-35 (20 μL) was also added to background control wells. The change in RFU was measured at 37 °C for 1 h, with readings every 20 s. Following subtraction of background fluorescence intensity, linear regression analysis of the linear part of each curve was used to determine the cleavage rate, which was expressed as the mean ± SEM in RFU s^–1. For cases where a single concentration of TS5-5 or TS4-4 was assayed, the same procedure was used but with 0.005% (v/v) Brij-35 and using the 5-FAM-AE↓LQGRPISIAK-TAMRA substrate for TS4-4 (0.56 μM). To convert cleavage rates to nM s^–1 nM^–1, the rate in RFU s^–1 was divided by the final concentration of proteinase (nM), then divided by the gradient of the calibration curve for Abz or 5-FAM (expressed in RFU nM^–1).
(§2) Selectivity studies are described for Abz-TESE↓SRGAIY-Dpa-KK-NH2, the library parent peptide 3, and hit peptides 18–26. A solution of Abz-TESE↓SRGAIY-Dpa-KK-NH2 (22.22 μM) in freshly prepared TNC buffer with 0.005% (v/v) Brij-35 (90 μL) was added to a 96-well clear bottom microplate (Greiner bio-one, Stonehouse, UK) in triplicate. A substrate-only background control was also added in triplicate (90 μL). The resultant solutions were incubated at 37 °C (30 min). An ADAMTS or MMP proteinase was added to substrate wells (10 μL) to give a final proteinase concentration of either 50–90 nM (TS4-4), 25–200 nM (TS5-5), 5–10 nM (MMP-2ΔC), 30 nM (MMP-9ΔC), 92 nM (MMP-1), or 3 μM (MMP-3). TNC buffer with 0.005% (v/v) Brij-35 was added to substrate-only control wells (10 μL). The relative fluorescence intensity was measured at 37 °C for 1 h with readings every 20 s. Activity was read from underneath the microplate, which was covered with a low evaporation lid. […] For each ADAMTS and MMP proteinase, the assay was performed 2–4 times. […] Final rates were expressed as a percentage of substrate cleavage by TS5-5 (mean ± SEM) or in μM s^–1 μM^–1 of proteinase.

[2] = system: MMP-9ΔC (catalytic domain of MMP-9); assay: Selectivity studies: cleavage of FRET peptide substrates by MMP-9ΔC; type: biochemical; details: substrate 20 μM, after 48 h at an MMP-9 concentration of 30 nM, 37 °C
Experimental: as §1, §2

TS5-5 (ADAMTS-5) = target: T2, TS5-5 (ADAMTS-5) (Homo sapiens, UniProt Q9UNA0); assay: Determination of kinetic parameters (kcat and Km) for substrate cleavage by TS5-5, inner-filter corrected; type: biochemical; details: for decrease in Km compared to the current substrate / lower catalytic rate constant (kcat) compared to the current substrate: TS5-5
T2 construct: ADAMTS-5 (i.e. TS5-5, residues 264–555); FLAG; made in house; host or cells: HEK293 cells (previously transfected stocks)
T2 sequence (Q9UNA0 264-555): T1 sequence (Q9UNA0 264-555)
Experimental: A solution of Abz-TESE↓SRGAIY-Dpa-KK-NH2/3/26 (5 mM) or 19/23 (1 mM) in DMSO underwent a 2-fold serial dilution with freshly prepared TNC buffer containing 0.005% (v/v) Brij-35. This gave initial concentrations in the following range: 222.22 to 0.87 μM (Abz-TESE↓SRGAIY-Dpa-KK-NH2/3/23/26) and 177.78 to 1.39 μM (19). Eight substrate concentrations (180 μL) within these ranges (including outer numbers) were added to a 96-well black microplate in triplicate and incubated at 37 °C (20 min). TNC buffer with 0.005% (v/v) Brij-35 was added to substrate-only control wells in a single replicate (180 μL). TS5-5 proteinase was thawed from −80 or −20 °C, made up in TNC buffer with 0.005% (v/v) Brij-35 (300 nM) and added to substrate wells (20 μL). TNC buffer was added to substrate-only control wells (20 μL). Fluorescence intensity was measured at 37 °C for 1 h with readings every 20 s. The rate of substrate cleavage was determined at each substrate concentration and expressed as the mean ± SEM in μM s^–1. The subsequent data was fitted to the Michaelis–Menten eq 2: [drawing 2] 2 where v is the rate of the reaction, Vmax is the maximal rate of the reaction, Km is the Michaelis constant, and [S] is the substrate concentration. This equation enabled the Km value to be determined. The catalytic rate constant kcat was determined from eq 3: [drawing 3] 3 where [E] is the concentration of proteinase, and kcat and Vmax are as defined previously. These initial Km and kcat parameters were determined from n = 3–4 independent experiments with final values for these parameters reported after a correction for the inner-filter effect.
This was performed based on the protocol described in Liu et al.([40]) to correct for quenching of the released Abz fluorophore by uncleaved substrate. Two sets of initial substrate concentrations were prepared as described in the previous section. Both sets of substrate concentrations (180 μL) were added to a 96-well black microplate in triplicate. Two buffer-alone controls with TNC buffer containing 0.005% (v/v) Brij-35 (180 μL) were also added in triplicate. All solutions were incubated at 37 °C (20 min). Abz fluorophore (1 M) in DMSO was serially diluted to 1 mM in DMSO, before further dilution to 100 μM using TNC buffer containing 0.005% (v/v) Brij-35. TNC buffer containing 0.005% (v/v) Brij-35 (20 μL) was added to the first set of substrate concentrations as well as to the first buffer-alone control. Abz fluorophore (20 μL, 100 μM) was added to the second set of substrate concentrations as well as the second buffer-alone control. The end-point fluorescence intensity was measured at 37 °C using λex = 300 nm and λem = 430 nm. At each substrate concentration, […] to give the actual fluorescence of the Abz fluorophore (RFUAbz). These values were divided by RFUAbz at a substrate concentration of 0 μM to give the correction factor for each concentration. The rates for each substrate concentration described in the previous section were divided by their respective correction factors (Tables S6–S10) to deliver the inner-filter corrected kcat and Km values.

TS4-4 (ADAMTS-4) = target: T3, TS4-4 (ADAMTS-4) (Homo sapiens, UniProt O75173); assay: Selectivity studies: cleavage of FRET peptide substrates by TS4-4; type: biochemical; details: substrate 20 μM, TS4-4 50–90 nM, TNC buffer with 0.005% (v/v) Brij-35, 37 °C; mean of 3–4 independent experiments in triplicate
T3 construct: TS4-4, TS5-5 = catalytic and disintegrin domains; made in house; host or cells: HEK293 cells (previously transfected stocks)
T3 sequence (O75173 213-519 limits assumed): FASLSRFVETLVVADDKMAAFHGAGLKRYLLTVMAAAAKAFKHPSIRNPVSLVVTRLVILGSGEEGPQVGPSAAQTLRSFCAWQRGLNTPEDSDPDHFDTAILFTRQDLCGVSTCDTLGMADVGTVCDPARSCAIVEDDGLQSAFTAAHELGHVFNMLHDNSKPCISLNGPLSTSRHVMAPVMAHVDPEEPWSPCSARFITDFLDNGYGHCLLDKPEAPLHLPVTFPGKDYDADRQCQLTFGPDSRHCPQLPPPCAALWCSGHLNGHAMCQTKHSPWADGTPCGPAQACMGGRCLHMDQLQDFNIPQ
Experimental: as §1, §2

[3] = target: combined catalytic and disintegrin domain of ADAMTS-5 (TS5-5) (UniProt Q9UNA0)
[4] = TS5-5, TNC buffer with 0.005% (v/v) Brij-35, 37 °C, corrected for inner filter effect, mean ± SEM from 3–4 independent experiments in triplicate
[5] = supplementary CSV copy of Table 3, TS5-5, 37 °C

In the case of “KY(NO2)QDSESBAK(Abz)JHYUKG [Compound 20]”, the “rate of cleavage by TS5-5” value [1] is reported as 1.22 × 10^–3 μM s^–1 μM^–1 and the “cleavage by MMP-9ΔC” value [2] is reported as “no signs of cleavage”.

With “KY(NO2)NESESKAK(Abz)VHYKKG (K[Tyr(3-NO2)]NESESKAK(2Abz)V-{H2N-Tyr-Lys-Lys-Gly}) [Compound 25]” the “rate of cleavage by TS5-5” value [1] was 1.78 × 10^–2 μM s^–1 μM^–1 and the “cleavage by MMP-9ΔC” value [2] was “no signs of cleavage”.

In the case of “KY(NO2)SESESRGK(Abz)IYYKKG (K[Tyr(3-NO2)]SESESRGK(Abz)IYYKKG) [Compound 23]”, the “decrease in Km compared to the current substrate” value (TS5-5 (ADAMTS-5)) is reported as ~2 fold, the “lower catalytic rate constant (kcat) compared to the current substrate” value (TS5-5 (ADAMTS-5)) is reported as ~3 fold and the Km (TS5-5 (ADAMTS-5); [4]) is reported as 64.6 ± 4.6 µM. The kcat (TS5-5 (ADAMTS-5); [4]) was 1.14 ± 0.11 s⁻¹, the kcat/Km (TS5-5 (ADAMTS-5); [4]) was 18200 ± 2940 M⁻¹ s⁻¹ and the kcat (TS5-5 (ADAMTS-5); [5]) was 1.14 ± 0.11 s⁻¹.

With “KY(NO2)TENESRGK(Abz)IYYKKG (K[Tyr(3-NO2)]TENESRGK(Abz)IYYKKG) [Compound 19]” the “rate of cleavage by TS4-4” value (TS4-4 (ADAMTS-4)) was 0.08–0.10 μM s^–1 μM^–1, the “decrease in Km compared to the current substrate” value (TS5-5 (ADAMTS-5)) was ~4 fold and the “lower catalytic rate constant (kcat) compared to the current substrate” value (TS5-5 (ADAMTS-5)) was ~7 fold. The Km (TS5-5 (ADAMTS-5); [4]) was 30.5 ± 2 µM, the kcat (TS5-5 (ADAMTS-5); [4]) was 0.53 ± 0.014 s⁻¹ and the kcat/Km (TS5-5 (ADAMTS-5); [4]) was 17500 ± 1080 M⁻¹ s⁻¹. For the same molecule, the kcat (TS5-5 (ADAMTS-5); [5]) was 0.53 ± 0.014 s⁻¹.

“KY(NO2)TETESOAK(Abz)IYFKKG [Compound 22]” was tested, and the “rate of cleavage by TS5-5” value [1] was 7.38 × 10^–2 μM s^–1 μM^–1.

With “KY(NO2)NDTESOAK(Abz)AHFUKG [Compound 24]” the “rate of cleavage by TS5-5” value [1] was 1.41 × 10^–4 μM s^–1 μM^–1 and the “cleavage by MMP-9ΔC” value [2] was “no signs of cleavage”.

“ortho-aminobenzoyl(Abz)-TESE↓SRGAIY-N-3-[2,4-dinitrophenyl]-L-2,3-diaminopropionyl(Dpa)-KK-NH2 (peptide)” gave a Km of cleavage of the FRET peptide by TS5-5 (Michaelis-Menten fit, corrected for the inner-filter effect, 37 °C, TNC buffer with 0.005% Brij-35) [3] of 125 µM.

For K[Tyr(3-NO2)]TENESRGK(2Abz)IYYKKG [KY(NO2)TENESRGK(Abz)IYYKKG (19)], the Km of cleavage of the FRET peptide by TS5-5 (Michaelis-Menten fit, corrected for the inner-filter effect, 37 °C, TNC buffer with 0.005% Brij-35) [3] was 30.5 µM.

With K[Tyr(3-NO2)]SENESRGK(2Abz)IYYKKG [KY(NO2)SENESRGK(Abz)IYYKKG (26)] the Km of cleavage of the FRET peptide by TS5-5 (Michaelis-Menten fit, corrected for the inner-filter effect, 37 °C, TNC buffer with 0.005% Brij-35) [3] was 76.9 µM.

Work on K[Tyr(3-NO2)]TESESRGK(2Abz)IYYKKG [KY(NO2)TESESRGK(Abz)IYYKKG (3)] yielded a Km of cleavage of the FRET peptide by TS5-5 (Michaelis-Menten fit, corrected for the inner-filter effect, 37 °C, TNC buffer with 0.005% Brij-35) [3] of 29.5 µM.
